Assay results reported in US9550980B2, “Composition and methods for the production of L-homoalanine” (The Regents of the University of California, priority 2010, dated 2017).

Assays:
[1] = Enzymatic assay of purified glutamate dehydrogenases, amination of 2-ketobutyrate (NADPH consumption at 340 nm); format: biochemical; conditions: 100 mM Tris pH 8.0, 0.2M NH4Cl, 0.2 mM NADPH
Description: To characterize the enzymes, both the wild-type glutamate dehydrogenase GDHwt and mutant GDH2 were added an N-terminal 6×His-tag, overexpressed, and purified through Ni-NTA columns. The kinetic parameters for […] of 2-ketoglutarate (cognate substrate) and 2-ketoisovalerate or 2-ketobutyrate (nonnatural substrates) were determined by monitoring the consumption of NADPH at 340 nm (FIG. 6). […] The increase in binding affinity is very helpful since high concentration of 2-ketobutyrate interferes with cellular metabolic activities (see, e.g. Daniel et al. (1983) Mol Gen Genet 190(3):452-458). On the basis of the crystallographic model for the active site of GDH, amino group of K92 hydrogenbonds to the γ-carboxyl group of 2-ketoglutarate and determines the substrate specificity (see, e.g. Stillman et al. (1993) J Mol Biol 234(4):1131-1139). Mutation of lysine to valine increases the hydrophobic character of the binding pocket, which explains why the specificity constant kcat/Km of GDH2 towards 2-ketobutyrate is 50-fold higher than that towards the natural substrate 2-ketoglutarate.
Both gene fragments encoding wildtype glutamate dehydrogenase and GDH2 were amplified using primers GDHbamfwd and GDHbamrev. After digestion with BamHI, the gene fragments were inserted into expression plasmid pQE9 (Qiagen). The resulting expression plasmids were transformed into E. coli strain BL21(DE3) harboring pREP4 (Qiagen). Cells were inoculated from an overnight preculture at 1/100 dilution and grown in 200 mL 2XYT rich medium containing 50 mg/L ampicillin and 25 mg/L kanamycin. At an OD600 of 0.6, recombinant proteins were expressed by induction of the cell cultures with 0.1 mM IPTG, followed by incubation at 30° C. overnight. Overexpressed proteins were then purified with Ni-nitrilotriacetic acid columns. Protein concentration was determined by measuring UV absorbance at 280 nm.
Enzymatic assay was performed in assay buffer (100 mM Tris buffer, pH 8.0) containing 0.2M NH4Cl, 0.2 mM NADPH, and various concentrations of 2-ketoacids. The reactions were started by adding the purified enzymes, and the consumption of NADPH was monitored at 340 nm (extinction coefficient, 6.22 mM^−1 cm^−1). Kinetic parameters (kcat and Km) were determined by fitting initial velocity data to the Michaelis-Menten equation using Origin.

2-ketobutyrate = assay: Conversion of fed 2-ketobutyrate to L-homoalanine by E. coli BW25113 overexpressing amination enzymes; format: cell-based, Escherichia coli; design: L-homoalanine produced: unit not given here; conditions: for L-homoalanine produced: 10 g/L 2-ketobutyrate fed, M9 medium, 37° C., 24 h
Description: FIG. 2 is a graph comparing different amination enzymes on the production of L-homoalanine. E. coli cultures were inoculated in M9 medium with addition of 10 g/L 2-ketobutyrate and incubated at 37° C. for 24 h. The horizontal axis labels are defined as follows: (A) Wild-type E. coli BW25113; overexpression of (B) transaminase IlvE (C) valine dehydrogenase from Streptomyces avermitilis; (D) valine dehydrogenase from Streptomyces coelicolor, (E) valine dehydrogenase from Streptomyces fradiae; (F) evolved glutamate dehydrogenase GDH1; and (G) evolved glutamate dehydrogenase GDH2. The error bars represent standard deviations from three independent experiments.
In order to check if any endogenous transaminase of E. coli can work on 2-ketobutyrate, we fed 10 g/L 2-ketobutyrate to wildtype E. coli strain BW25113 growing in M9 medium. […] Since the branched-chain amino acid aminotransferase IlvE (see, e.g. Inoue K, et al. (1988) J Biochem 104(5):777-784) is likely to be a functional candidate, we cloned and overexpressed IlvE in BW25113, which increased the production of L-homoalanine to […] (FIG. 2B). […] However, high concentration of glutamate is needed to drive the reaction equilibrium because transamination is a reversible reaction process. Even under such extreme conditions, the conversion rate of transaminating 2-ketobutyrate to L-homoalanine is only 32%.
To test the conversion of 2-ketobutyrate to L-homoalanine, plasmids pZElac_IlvE, pZElac_VDHsa, pZElac_VDHsc, pZElac_VDHsf, pZElac_GDH and pZElac_GDH2 were transformed into BW25113. The transformants were inoculated in M9 medium with 5 g/L yeast extract, 10 g/L ammonium hydrochloride and 20 g/L glucose. Once OD reached ˜1.0, 10 g/L 2-ketobutyrate plus 0.1 mM IPTG were added and incubated at 37° C. for 24 h. Amino acids were quantified as o-phthaldialdehyde (OPA) derivatives by HPLC analysis.

threonine = assay: Production of L-homoalanine from glucose by E. coli overexpressing GDH2 and threonine dehydratases; format: cell-based, Escherichia coli; conditions: ATCC98082, overexpressed in combination with GDH2
From the text: FIG. 5A is a graph with horizontal axis labels defined as follows: (1) BW25113; (2) BW25113 with overexpression of GDH2; (3) ATCC98082 with overexpression of TdcB & GDH2; (4) ATCC98082 with overexpression of IlvAEc & GDH2; (5) ATCC98082 with overexpression of IlvABS & GDH2; and (6) ATCC98082 (ArhtA) with overexpression of IlvABS and GDH2. FIG. 5B is a graph showing the yield of L-homolalanine biosynthesis from glucose. The error bars represent standard deviations from three independent experiments.
To test the production of L-homoalanine from glucose, E. coli strain ATCC98082 harboring plasmid pZS_thrO (see, e.g. Zhang et al. (2008) Proc Natl Acad Sci USA 105(52):20653-20658) was transformed with pZElac_tdcB_GDH, pZElac_ilvAEC_GDH and pZElac_ilvABS_GDH. These transformants were subjected to fermentation using the following production medium: 30 g glucose, 17 g (NH4)2SO4, 2 g KH2PO4, 1 g MgSO4.7H2O, 2 g yeast extract, 0.1 g L-valine, 0.01 g FeSO4:7H2O and 0.01 g MnSO4:7H2O per liter. Antibiotics were added appropriately (ampicillin 50 mg/L, spectinomycin 25 mg/L). Overnight 2XYT culture were diluted 25× into fermentation medium and 0.1 mM isopropyl-b-D-thiogalactoside (IPTG) was added to induce protein expression. In shake flask experiments, the culture medium was buffered by addition of 30 g/L CaCO3. Cultures were incubated in 33° C. shaker (250 rpm) for 40-50 h until glucose was consumed.

| Molecule | L-homoalanine produced (2-ketobutyrate; BW25113 transformant) | L-homoalanine produced from glucose (threonine) | threonine remaining in fermentation medium (threonine) | other results |
| --- | --- | --- | --- | --- |
| GDHwt: wild-type glutamate dehydrogenase of E. coli, N-terminal 6×His-tag (protein, listed as Escherichia coli, N-terminal 6xHis tag, wild-type glutamate dehydrogenase of E. coli, N-terminal 6×His-tag) MDQTYSLESFLNHVQKRDPNQTEFAQAVREVMTTLWPFLEQNPKYRQMSLLERLVEPERVIQFRVVWVDDRNQIQVNRAWRVQFSSAIGPYKGGMRFHPSVNLSILKFLGFEQTFKNALTTLPMGGGKGGSDFDPKGKSEGEVMRFCQALMTELYRHLGADTDVPAGDIGVGGREVGFMAGMMKKLSNNTACVFTGKGLSFGGSLIRPEATGYGLVYFTEAMLKRHGMGFEGMRVSVSGSGNVAQYAIEKAMEFGARVITASDSSGTVVDESGFTKEKLARLIEIKASRDGRVADYAKEFGLVYLEGQQPWSLPVDIALPCATQNELDVDAAHQLIANGVKAVAEGANMPTTIEATELFQQAGVLFAPGKAANAGGVATSGLEMAQNAARLGWKAEKVDARLHHIMLDIHHACVEHGGEGEQTNYVQGANIAGFVKVADAMLAQGVI |  |  |  | kcat towards 2-ketobutyrate [1]: 47.2 s⁻¹; Km ([1]; read-out: Km towards 2-ketobutyrate): 35.4 mM |
| GDH1 (protein, UniProt P07262 2-454, looked up) NADP-specific glutamate …: SEPEFQQAYEEVVSSLEDSTLFEQHPEYRKVLPIVSVPERIIQFRVTWENDKGEQEVAQGYRVQYNSAKGPYKGGLRFHPSVNLSILKFLGFEQIFKNSLTGLDMGGGKGGLCVDLKGRSNNEIRRICYAFMRELSRHIGQDTDVPAGDIGVGGREIGYLFGAYRSYKNSWEGVLTGKGLNWGGSLIRPEATGYGLVYYTQAMIDYATNGKESFEGKRVTISGSGNVAQYAALKVIELGGTVVSLSDSKGCIISETGITSEQVADISSAKVNFKSLEQIVNEYSTFSENKVQYIAGARPWTHVQKVDIALPCATQNEVSGEEAKALVAQGVKFIAEGSNMGSTPEAIAVFETARSTATGPSEAVWYGPPKAANLGGVAVSGLEMAQNSQRITWTSERVDQELKRIMINCFNECIDYAKKYTKDGKVLPSLVKGANIASFIKVSDAMFDQGDVF | 1.6 |  |  |  |
| TdcB: catabolic threonine dehydratase of E. coli (protein, listed as Escherichia coli) MHITYDLPVAIDDIIEAKQRLAGRIYKTGMPRSNYFSERCKGEIFLKFENMQRTGSFKIRGAFNKLSSLTDAEKRKGVVACSAGNHAQGVSLSCAMLGIDGKVVMPKGAPKSKVAATCDYSAEVVLHGDNFNDTIAKVSEIVEMEGRIFIPPYDDPKVIAGQGTIGLEIMEDLYDVDNVIVPIGGGGLIAGIAVAIKSINPTIRVIGVQSENVHGMAASFHSGEITTHRTTGTLADGCDVSRPGNLTYEIVRELVDDIVLVSEDEIRNSMIALIQRNKVVTEGAGALACAALLSGKLDQYIQNRKTVSIISGGNIDLSRVSQITGFVDA |  | 0.18 g/L | 3.7 g/L | glutamate accumulated (threonine): 4 g/L |
| IlvE: branched-chain amino acid aminotransferase of E. coli (protein, UniProt P0AB80 2-309, looked up) Branched-chain-amino-acid …: TTKKADYIWFNGEMVRWEDAKVHVMSHALHYGTSVFEGIRCYDSHKGPVVFRHREHMQRLHDSAKIYRFPVSQSIDELMEACRDVIRKNNLTSAYIRPLIFVGDVGMGVNPPAGYSTDVIIAAFPWGAYLGAEALEQGIDAMVSSWNRAAPNTIPTAAKAGGNYLSSLLVGSEARRHGYQEGIALDVNGYISEGAGENLFEVKDGVLFTPPFTSSALPGITRDAIIKLAKELGIEVREQVLSRESLYLADEVFMSGTAAEITPVRSVDGIQVGEGRCGPVTKRIQQAFFGLFTGETEDKWGWLDQVNQ | 1.2 |  |  | L-homoalanine titer (2-ketobutyrate; BW25113 transformant, 10 g/L 2-ketobutyrate plus additional 10 g/L glutamate): 3.2 g/L; conversion rate of 2-ketobutyrate to L-homoalanine (2-ketobutyrate; with 10 g/L glutamate as amino donor): 32% |
| IlvABS: biosynthetic threonine dehydratase IlvA from Bacillus subtilis (protein, listed as Bacillus subtilis) MKPLLKENSLIQVKDILKAHQNVKDVVIHTPLQRNDRLSERYECNIYLKREDLQVVRSFKLRGAYHKMKQLSSEQTENGVVCASAGNHAQGVAFSCKHLGIHGKIFMPSTTPRQKVSQVELFGKGFIDIILTGDTFDDAYKSAAECCEAESRTFIHPFDDPDVMAGQGTLAVEILNDIDTEPHFLFASVGGGGLLSGVGTYLKNVSPDTKVIAVEPAGAASYFESNKAGHVVTLDKIDKFVDGAAVKKIGEETFRTLETVVDDILLVPEGKVCTSILELYNECAVVAEPAGALSVAALDLYKDQIKGKNVVCVVSGGNNDIGRMQEMKERSLIFEGLQHYFIVNFPQRAGALREFLDEVLGPNDDITRFEYTKKNNKSNGPALVGIELQNKADYGPLIERMNKKPFHYVEVNKDEDLFHLLI |  | 3.8 g/L | 2.5 g/L |  |
